These are literature values, as cited in paper PMC2766628.

This series has as its target PEP 3BP1 element (UniProt Q9Y2R2).
UniProt Q9Y2R2, sequence (Q9Y2R2 605-629): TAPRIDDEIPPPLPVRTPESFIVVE

Consider Csk SH3 (from UniProt P41240), for which the Kd (usually a measure of binding affinity in units of concentration) is 800 nM.
